Assay results from patent publication US20150025013A1.

Tests used:
[1] = target: (pro)renin receptor (PRR), mouse (mouse) (UniProt Q9CYN9); assay: cell-based or functional assay
[2] = target: (pro)renin receptor (PRR) on mpkCCD cells (UniProt Q9CYN9); assay: cell-based or functional assay
(pro)renin receptor (PRR) on mpkCCD cells, sequence (Q9CYN9 18-350 limits assumed): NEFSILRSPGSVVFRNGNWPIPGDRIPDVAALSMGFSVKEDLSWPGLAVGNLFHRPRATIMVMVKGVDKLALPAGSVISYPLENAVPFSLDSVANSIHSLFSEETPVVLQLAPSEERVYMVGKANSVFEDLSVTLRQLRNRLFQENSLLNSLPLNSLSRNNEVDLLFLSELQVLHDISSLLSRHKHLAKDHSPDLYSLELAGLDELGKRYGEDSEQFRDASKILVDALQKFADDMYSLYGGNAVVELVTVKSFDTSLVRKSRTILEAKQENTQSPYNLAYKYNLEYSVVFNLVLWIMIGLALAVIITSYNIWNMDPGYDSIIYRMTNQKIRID

(pro)renin receptor (PRR), mouse (mouse), sequence (Q9CYN9 18-350): as the sequence (Q9CYN9 18-350 limits assumed) above

pressor response (delta MAP) to ICV mouse prorenin alone in C57BI/6J mice [1] | pressor response (delta MAP) to ICV mouse prorenin in neuron-specific PRR knockout (Nefh-PRR) mice [1] | pressor response (delta MAP) to ICV mouse prorenin in wild-type mice [1] | ENaC activity (Ieq) in mpkCCD cells, 10 nM for 5 min (control group 1.17+0.05 µA/cm2) [2] | Substance
31.3 mmHg | 5 mmHg | 41 mmHg | – | mouse prorenin (from UniProt P06281 22-402) (ligand)
– | – | – | 3.16 µA/cm2 | prorenin (cell culture experiments of Example 13) (ligand)
– | – | – | 1.58 µA/cm2 | renin (cell culture experiments of Example 13) (enzyme)
